Tested on: K4 kissing-loop RNA reporter
Assay: apparent KD of K4 kissing-loop reporter; higher = weaker reporter binding
Conditions: Eterna round: R107
Description: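 RNA-MaP round R107: designed RNA switches with theophylline, tryptophan, arginine or FMN aptamers are transcribed on-chip within common flanks. They are titrated with a labelled K4 kissing-loop RNA reporter in RNA-MaP buffer (100 mM Tris pH 7.5, 80 mM KCl, 4 mM MgCl2), without ligand or with the indicated ligand. Median apparent KD per design.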

[1] = input ligand: theophylline 20 uM
[2] = input ligand: tryptophan 2.4 mM
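Note: bound reporter read as fluorescence of individual clusters on recovered sequencing chips by microscopy, with normalized cluster intensities fitted with a binding model.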

Sequence | apparent KD of K4 kissing-loop reporter (input ligand: FMN 200 uM) [nM] | apparent KD of K4 kissing-loop reporter (input ligand: arginine 13.2 mM) [nM] | apparent KD of K4 kissing-loop reporter (input ligand: none) [nM] | apparent KD of K4 kissing-loop reporter [1] [nM] | apparent KD of K4 kissing-loop reporter [2] [nM]
GGAUCCACCAGUGAUGUUGGAGAAAACUCCAAGGAUAUGACGAAAGUCAGAAGGUGGUAGACUGGACAAAGUCCGGUCGGAUCCA [FmnA 23 #SwitchBubble #K4Early] | 719 | 113 | 126 | 68.1 | 160
GGAUCCACCAGUGAUGUUGGAGAAAACUCGAAGGAUAUGACGAAAGUCAGAAGGUUGUAGACUGGACAAAGUCCGGUCGGAUCCA [FmnA 23 G30+U56] | 843 | 466 | 549 | 590 | 421
GGAUCCACCAGUGAUGUUGGAGAAAACUCUAAGGAUAUGACGAAAGUCAGAAGGUGGUAGACUGGACAAAGUCCGGUCGGAUCCA [FmnA 23 U30] | 1210 | 177 | 397 | 262 | 347
GGAUUGCCAGUGAUGUUGGCAUAAACUGAAGGAGCGCGUGAAAACGCAGGUAGGUCGCAGAACCUUGCCAACUGAUCGAAAGAUC [Ex Arginine A K4 29] | 123 | 138 | 121 | 122 | 106
GGCACUUUUGCUUGGAACCGUCAAGCUCUAUAGGAUAUGCCGAAAGGCAGAAGGAUGGACCUACAGAGUGAUGUUCUGCGUGCCU | 393 | 140 | 583 | 134 | 218
GGCAUAUAAAAUUGCCUAGAGAGAAAGGAUACCAGCACCCGGCGGUGCCCUUGGCAGCCUAGCCCAGUGAUGUUGGGUCCUCUAA [Esinvege] | 237 | 130 | 189 | 235 | 223
GGCCGAAGAGAAGGAUAUGGUUUCACGCGUCGUUAGUGAUGUUAAUGCGCAUGCCUUAGUAUAGAGCCAGAAGGUCUGGUCAGAA [theeternabot_sameState_KL_FMN_B_34] | 170 | 199 | 219 | 210 | 213
GGCCGGAAGGCGGCCGCCACUCAGUGAUGUUGUGUGAAAGAAAAGAAAAGAAGAAAGAAAAGAAAGAGGACCGGGCCAAACGGCC | 257 | 224 | 504 | 643 | 580
GGGAGCAAAGCUCCCGGAUGCUAUAGUCAGGAGGAUAUCUGGAAACAGAGAAGGCCUAAGCCAGUGAUGUUGGCUAUAAGCAUCC | 475 | 406 | 757 | 629 | 589
GGGAGUAGUGCGGCCGCCACUGAGAAAGAAGAAGAAUAUAGUGAUGUUAUAUAGGAAGGGAAGAAUAGGACCGGGCAUUAGAUUU [SSTRyptB.Z] | 336 | 250 | 340 | 275 | 233
GGGAGUAGUGCGGCCGCCACUGUGAAAGUAGAAGAAUAUAGUGAUGUUAUAUAGGAUUAAAAGAAUAGGACCGGGCAUUAGAUUU [SSTRyptB.W] | 176 | 207 | 219 | 186 | 209
GGGUUUGACGGAGGAUAUGCACUGAGGAGGAGAAUAUAGUGAUGUUAUAUAAGAGGAAGGAGAAGAGUAGAAGGCCGUUGGGUUU [SSFMNB.L] | 124 | 131 | 139 | 165 | 104
GGUAGCAUGGCGGCCGCCACUAAGAGAGUGAUGUUCUCUUAGUUUUUUGAUGUGUUAUCAAUUCUUAGGACCGGGCCAUGCUACC | 111 | 92.4 | 98.2 | 99.8 | 109
GGUAGCAUGGCGGCCGCCACUCGCUAGUGAUGUUAGCGGGAUGAGACAAAGGACAUAACUUUAUCGAGGACCGGGCCAUGCUACC | 88.2 | 66.5 | 75.8 | 62.2 | 92.9
GGUAGCAUGGCGGCCGCCACUCUUCAUUAGUGAUGUUAAUGCCGAGUGCGCUAACUCCAACAGGAGAGGACCGGGCCAUGCUACC | 532 | 445 | 501 | 760 | 98.8
GGUAGCAUGGCGGCCGCCACUCUUCAUUAGUGAUGUUAAUGCCGAGUGCGCUAACUCCGCCAGGAGAGGACCGGGCCAUGCUACC | 397 | 302 | 406 | 407 | 185
GGUAGCAUGGCGGCCGCCACUUAAUCACUCCAGGAUGAGGAAUAUAAGCAGUGAUGUUGCUAAGUAAGGACCGGGCCAUGCUACC | 269 | 271 | 327 | 354 | 201
GGUCGCCUGAGCAGUGAUGUUGCAAGGGAAGGAGCGCGUUUUUUCGCAGGUAGGUCGCCCAAAUAAUAAGUUAAACUAGGCGACC [4.)] | 221 | 144 | 149 | 316 | 205
GGUGAUGAGCACGAUACCAGCCUCGGAGCCAGUGAUGUUGGCCCAAUUUAAAAUAAGAUAGGCCCUUGGCAGCGUGACGAUGGCU [Rainle] | 727 | 727 | 711 | 466 | 643
GGUGCUGUUUGUGCCGCCUUCCUCGUUCCUCGAGGACCGGUACGGCCGCCACUCGAGUGAUGUUUGGGUAGCGAUCCCUGCUAGC [Bdazzled - #14 Exc. Tryptophan A] | 470 | 538 | 1370 | 566 | 413
GGUUCUGUUUUAGGUUUAGUGAUGUUGAAUCGAGGACCGGUACGGCCGCCACUCGGUGACGUCGUAACUUUGGAGGUCCUAACCA [theeternabot_exclusion_KL_Trp_A_47] | 764 | 642 | 665 | 658 | 438
GUAAGACCGGGACUCCAGUGAUGUUGGAGGCAGGAUAUCCAGUCGAGGAGAAGGGCCAGGGAUAUCGAGCUGCUCGGUUCGUAGU [Rerareatra] | 81.8 | 101 | 103 | 107 | 66.5

Sequence | apparent KD of K4 kissing-loop reporter (input ligand: FMN 200 uM) [nM] | apparent KD of K4 kissing-loop reporter (input ligand: arginine 13.2 mM) [nM] | apparent KD of K4 kissing-loop reporter (input ligand: none) [nM] | apparent KD of K4 kissing-loop reporter [1] [nM] | apparent KD of K4 kissing-loop reporter [2] [nM]
GUACCUUGGAAACAAGGACAGCUAACCGAAGGAGCGCGUGAAAACGCAGGUAGGUCGCGGUAGCGGAGUGAUGUUCCGCGAGAGC [Same State Arginine A GF 19] | 114 | 85.8 | 88.8 | 103 | 108
GUACGCUCCCGAGUGAUGUUCGGUAAUCGCGAGGAUAUCGCUUUUGCGAGAAGGCGCGGAAUGAGGAAACUCGUUCUGAGUGUAC [FMN A 25] | 234 | 191 | 253 | 212 | 233
GUACGCUUCCGAGUGAUGUUCGGAAAUCGCUAGGAUAUCGCUUUUGCGAGAAGGAGCGCAAUGAGGAAACUCGUUGUUAGUGUAC [FMN A 27] | 164 | 146 | 177 | 171 | 163
GUAGACAGACUGCAAGCCUAGUCUACAGACUAGGAUAUCAGGAAACUGAGAAGGAGUCUACUUGCAGUGAUGUUGCAAGAAUAAU [[F]''-[K]'-[F]'-[F1]-[F2]-[K1]-[K2]_Design4] | 146 | 126 | 121 | 111 | 119
GUAUAUCGAACUGAUACCAGAGAAUAUAGCAGUGAUGUUGCAUAUAUGAAUAAGACUCGACUCCCUUGGCAGCGGGAAGAUAUAC [On purpose 2] | 132 | 169 | 137 | 166 | 142
GUAUCGCUAGGAGGAUAUUCCGUUUUUCAUAGAAAUGGCUAUGCGGAGUGAUGUUCCGAUUUACCGGAAGAAGGCCUAGUGAUAC [FMN B 23] | 106 | 132 | 149 | 142 | 142
GUCCAAACACAGUGAUGUUGUGAAUAUGAAGGAGCGGACGAAAGUCCAGGUAGGUCGCAUAAAGGACACCUACGAAAAGUAGGAA [#SwitchBubble 5 #K4Early] | 172 | 201 | 228 | 222 | 159
GUCCCAGUGAUGUUGGUAGGCGAGCGGGAUACCAGCCAAGACUCAGGCCCUUGGCAGCCCACAUAUCCCACGUAGGGAUUAGCUC [Same State - Theophylline A (Freestyle 19)] | 212 | 198 | 223 | 256 | 173
GUGCAAAGCACCGGCACGAGCAGCCUAAAGGAGGAUAUGACGAAAGUCAGAAGGCCUAGUGAUGUUAGGCCUUGCUUGAGUCGAA [Omei KL FMN A Exc B v1] | 131 | 137 | 169 | 183 | 151
GUGCGCGCGGCGGCCGCCACUCGCAUGAGAGUGAUGUUCUCGGGACUGACGCAAGUCAGUCAUGUGAGGACCGGGCCGGGCUGCG [#2 Same State - Tryptophan B Attempt #12 (HarryS)] | 1060 | 1640 | 447 | 769 | 423
GUGUAAGUGAUGUUUGCACACACGUCGGAUACCAGAGACUUUAGCCUCCCUUGGCAGCCGCCGGCCAUAAGAGCAAGUCGAUUUA [theeternabot_sameState_KL_Theo_A_20] | 197 | 186 | 210 | 194 | 176
GUUACGCAUGGAAGGAGCGCGAUAAUAUUAAGUGAGUGAUGUUCACAAAGAAAAUAAAUAACGCAGGUAGGUCGCCAUGUGUAAC [Ex Arginine B K4 4] | 79.3 | 93.1 | 80.8 | 97.8 | 81.8
GUUACGCAUGGAAGGAGCGCGAUUAAAUUUAGUGAGUGAUGUUCACAAAAUAAAACUAAAACGCAGGUAGGUCGCCAUGUGUAAC [Ex Arginine B K4 2] | 171 | 196 | 188 | 198 | 159
GUUGAUCAUGGAAGGAGCGCCCAUUGUCGACACGAGUGAUGUUCGUGUCGUUGAUUACGAGGGCAGGUAGGUCGCCGUGUGCUUU [Rabele] | 149 | 109 | 124 | 116 | 119
GUUUGGCGGACGGCCGCCACUCGGACGAGUCACAGUGAUGUUGUGGUUUGCCAGUCGACUUCAUCGAGGACCGGGUUUGUCGGGC [Exclusion Tryptophan B GF 20] | 363 | 276 | 395 | 314 | 379
UAACAGGCCCUCACCGUCUUAUUUACAGACCGAGGACCGGUACGGCCGCCACUCGUGAAGUGAUGUUUCAAACAAGCGGUAGGAU | 721 | 467 | 685 | 480 | 328
UAAUAAAUUCCAGCGAUAUCGCUCUUCGAAGGAGCGGACGAAAGUCCAGGUAGGUCGCGAAGAGUGAUGUUCUUUGCGGCGCUGG [Omei KL Arginine A Exc A v4] | 207 | 180 | 262 | 320 | 226
UAAUUUAUCGCAGGAUAUAGCCAUAAACCGGUCCUAAGGGACCUUCUGGGCAGUGAUGUUGCCCGGCUAGAAGGGCGAGUUCACC [Anenlagema] | 115 | 105 | 116 | 103 | 105
UAAUUUAUGUCUUUAAUAUAAUAAUCAGAUACCAGUGAUUUAUGACACCCUUGGCAGCUGUAUAGAGUGAUGUUCUUAUGCUUAA [JR_ExcTheophyA_Sub011] | 247 | 324 | 278 | 375 | 179
UACAAACGUAGUGAUGUUACGUACUCUGAUACCAGACAACUCUAAGUCCCUUGGCAGCAGUCAUUUUGCUUAUUAUUUUCUCAAA [JR_ExcTheophyA_Sub018] | 86.5 | 102 | 92 | 98.5 | 75.2
UAGACCUACUCAGGAUAUCCGCAGUGAUGUUGCGGUUGGCCUGAGCGACAUGAAAAUCUUACUAAAGGAGAAGGGAGAGGGUUAC [Ratiteus] | 123 | 79.2 | 94.3 | 69.7 | 88.4
UAGGAGUGAUGUUCCAUAUCUUGAGCCGAAGGAGCGGCAUUAUAGCCAGGUAGGUCGCGGCAGAAGGUACCAGUGAUGUUGGAAA [Same State Arginine A GF5] | 182 | 160 | 206 | 202 | 173
